The values below come from PMC7455699, “Rapid high-yield expression and purification of fully post-translationally modified recombinant clusterin and mutants” (Scientific Reports, 2020).

The chains are these.
B1: clusterin purified from human plasma (natural protein)
chain 1: DQTVSDNELQEMSNQGSKYVNKEIQNAVNGVKQIKTLIEKTNEERKTLLSNLEEAKKKKEDALNETRESETKLKELPGVCNETMMALWEECKPCLKQTCMKFYARVCRSGSGLVGRQLEEFLNQSSPFYFWMNGDRIDSLLENDRQQTHMLDVMQDHFSRASSIIDELFQDRFFTREPQDTYHYLPFSLPHRRPHFFFPKSRIVR
chain 2: SLMPFSPYEPLNFHAMFQPFLEMIHEAQQAMDIHFHSPAFQHPPTEFIREGDDDRTVCREIRHNSTGCLRMKDQCDKCREILSVDCSTNNPSQAKLRRELDESLQVAERLTRKYNELLKSYQWKMLNTSSLLEQLNEQFNWVSRLANLTQGEDQYYLRVTTVASHTSDSDVPSGVTEVVVKLFDSDPITVTVPVEVSRKNPKFMETVAEKALQEYRKKHREE
notes: One 'monomer' is a single α-β structure joined by 5 disulfide bonds; The protein is N-glycosylated at six sites; also called pCLU; human plasma CLU
B2: wild type recombinant human clusterin with the C-tag at the C-terminus of the β-chain (natural protein)
chain 1: B1 chain 2
chain 2: B1 chain 1
notes: The protein is cleaved into α- and β-chains and is glycosylated; also called rCLU-CT; source: MEXi293E cells, transfected, secreted into protein-free medium, purified (Capture Select C-tag column); not shown: C-tag (EPEA), C-terminal, kept
B3: wild type recombinant human clusterin with a twin Streptag at the C-terminus of the α-chain (natural protein)
chain 1: B1 chain 2
chain 2: B1 chain 1
notes: The tag is separated from the inter-chain cleavage motif by a 4-glycine spacer; About 90-95% of the protein is cleaved into α- and β-chains, and it is glycosylated; also called rCLU-αC-ST; rCLU-ST; source: MEXi293E cells, transfected, secreted into protein-free medium, purified (Streptactin-XT); not shown: twin Streptag, C-terminal, kept

This data set deals with the molecule itself. As to the kind of experiment: mass photometry; proteins at 1 nM in PBS (pH 7.4), 10 µl analysed over 10 min; monomer (a single disulphide-linked α-β structure) to dimer (two non-covalently associated α-β structures).
As to B1, the “percent of species in solution that is dimer” value was approximately 60% and the “stoichiometry N” value amounted to 2.
In the same order, the values of B2 are approximately 60% and 2.
Regarding B3, the “percent of species in solution that is dimer” value is approximately 60% and the “stoichiometry N” value amounted to 2.

As usually defined, the stoichiometry N is the number of molecules, sites or subunits per partner or assembly.
